# Target: Gaussia princeps luciferase (Gluc)-LiDps fusion protein (Gaussia princeps | Listeria innocua)
# Assay: native gel or EMSA + other: TEM; purified refolded Gluc-LiDps; native gel with HuAFn and LiDps as molecular weight markers, and morphological characterization by TEM
substance,measurement,value
Gaussia princeps luciferase (Gluc)-LiDps fusion protein,stoichiometry N,12 subunits

# From PMC6712498
